Here are results for 1 molecule from publication PMC3069011 (Molecular Biology of the Cell, 2011).

For the assay, the target named is T1, GST-Nup88 (human, UniProt Q99567 1-741).
T1 sequence (looked up): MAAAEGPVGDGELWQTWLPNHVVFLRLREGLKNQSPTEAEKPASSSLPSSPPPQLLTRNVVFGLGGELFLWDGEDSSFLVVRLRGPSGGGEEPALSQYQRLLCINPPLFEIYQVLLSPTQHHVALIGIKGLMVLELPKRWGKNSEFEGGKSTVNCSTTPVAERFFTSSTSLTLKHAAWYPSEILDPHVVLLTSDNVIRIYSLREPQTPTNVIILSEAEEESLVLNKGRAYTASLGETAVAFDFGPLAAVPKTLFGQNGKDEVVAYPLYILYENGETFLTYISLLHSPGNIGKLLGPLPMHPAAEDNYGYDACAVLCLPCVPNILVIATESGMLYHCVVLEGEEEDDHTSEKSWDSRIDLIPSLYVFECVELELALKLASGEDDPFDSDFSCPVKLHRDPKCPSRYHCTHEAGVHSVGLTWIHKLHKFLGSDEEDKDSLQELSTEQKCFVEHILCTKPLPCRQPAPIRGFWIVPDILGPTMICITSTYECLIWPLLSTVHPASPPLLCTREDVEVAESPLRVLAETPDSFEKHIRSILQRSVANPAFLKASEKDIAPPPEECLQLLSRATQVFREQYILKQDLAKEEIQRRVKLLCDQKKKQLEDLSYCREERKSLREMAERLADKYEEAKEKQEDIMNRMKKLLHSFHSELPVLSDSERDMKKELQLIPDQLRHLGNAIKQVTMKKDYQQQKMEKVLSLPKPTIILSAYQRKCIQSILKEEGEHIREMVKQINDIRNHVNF
Briefly: far-Western, overlay or dot blot.

B1: lamin A tail (residues 243-664), bacterially expressed and purified (domain or fragment, human, UniProt P02545 243-664, looked up)
chain: DALQELRAQHEDQVEQYKKELEKTYSAKLDNARQSAERNSNLVGAAHEELQQSRIRIDSLSAQLSQLQKQLAAKEAKLRDLEDSLARERDTSRRLLAEKEREMAEMRARMQQQLDEYQELLDIKLALDMEIHAYRKLLEGEEERLRLSPSPTSQRSRGRASSHSSQTQGGGSVTKKRKLESTESRSSFSQHARTSGRVAVEEVDEEGKFVRLRNKSNEDQSMGNWQIKRQNGDDPLLTYRFPPKFTLKAGQVVTIWAAGAGATHSPPTDLVWKAQNTWGCGNSLRTALINSTGEEVAMRKLVRSVTVVEDDEDEDGDDLLHHHHGSHCSSSGDPAEYNLRSRTVLCGTCGQPADKASASGSGAQVGGPISSGSSASSVTVTRSYRSVGGSGGGSFGDNLVTRSYLLGNSSPRTQSPQNCSIM
Turning to B1, the binding result was “binds”.
